Experimental data published in US20120164110A1, “DIFFERENTIALLY METHYLATED REGIONS OF REPROGRAMMED INDUCED PLURIPOTENT STEM CELLS, METHOD AND COMPOSITIONS THEREOF” (priority 2009, published 2012).
“Also recorded” adds a separate entry of the source.

Key:
[1] = system: intermediate or partial states of reprogramming; conditions: cited from earlier work
B-NP-iPSC = experiment: methylcellulose hematopoietic colony forming assay of EB-differentiated cells; format: cell-based, mouse; conditions: Wnt3a 40 ng/ml in EB culture media between day 2 and 4, versus non-treated EBs
Protocol: (§1) Differentiation of iPSC to hematopoietic and osteogenic lineages was performed as follows. Hematopoietic colony forming activity of d6 EBs differentiated from pluripotent stem cells was measured in methylcellulose medium with IL3, IL6, Epo, and SCF (M3434, StemCell Tech.) as described in Kyba et al. (Cell (109)29-37 (2002)). Hematopoietic colony type was determined on day 10. Colony identity was confirmed by leukostain analysis of cytospin preparation of the methylcellulose colonies. Osteogenic differentiation was performed by culturing pluripotent stem cells in 15 μl hanging drops (800 cells/drop) in ES differentiation media^16. Embryoid bodies (EB) from hanging drops were collected at 2 days, transferred to a 10 cm dish of non-tissue culture grade plastic with 10^−6 M of retinoic acid, and cultured for 3 days on the shaker (50 rpm) in an incubator. EBs were equally distributed among 3 wells of a 6-well tissue culture dish, and cultured in aMEM media supplemented with 10% FBS, 1× penicillin/streptomycin/glutamine (Invitrogen), 2 nM triiodothyronine, 1× insulin/transferrin/[…] (Gibco, #51300-044). The media were changed every other day. On day 11, one well of each sample was used to measure calcium concentration, osteogenic gene expression (RNA isolation), and for Alizarin Red staining. For Alizarin Red staining, cells were washed with PBS and fixed with 4% paraformaldehyde for 5 minutes at 20 C. Fixed cells were incubated for 15 minutes in Alizarin Red staining solution (Alizarin Red (Sigma, A5533) 2% in H2O, pH 4-4.3 adjusted with NH4OH, filtered with 0.45 uM membrane), and washed with Tris-HC1, pH4.0. Elemental calcium concentrations were measured by inductively coupled plasma—atomic emission spectroscopy (ICP-AES, HORIBA Jobin Yvon Activa-M) as described in Nomlru et al. (Anal. Chem. (66)3000-3004 (1994)) at the Center for Materials Science and Engineering at MIT, and three measurements were conducted to obtain mean and standard deviation values. […]

NSC-NP-iPSC = experiment: as above; format: cell-based, mouse; conditions: Wnt3a 40 ng/ml in EB culture media between day 2 and 4, versus non-treated EBs
Protocol: as §1

NP-iPSC = experiment: as above; format: cell-based, mouse; conditions: Wnt3a 40 ng/ml in EB culture media between day 2 and 4, versus non-treated EBs
Protocol: as §1

Molecule	effect on intermediate states of reprogramming [1]	hematopoietic potential (B-NP-iPSC)	blood-forming potential (NSC-NP-iPSC)	blood-forming potential (NP-iPSC)
Nc1ncn([C@@H]2O[C@H](CO)[C@@H](O)[C@H]2O)c(=O)n1 [5-AZA, 5-azacytidine]	can convert intermediate states to full pluripotency			
Wnt3a: exogenous Wnt3a cytokine (R&D System, 1324-WN-002/CF) (protein, UniProt P56704 19-352, looked up) Protein Wnt-3a: SYPIWWSLAVGPQYSSLGSQPILCASIPGLVPKQLRFCRNYVEIMPSVAEGIKIGIQECQHQFRGRRWNCTTVHDSLAIFGPVLDKATRESAFVHAIASAGVAFAVTRSCAEGTAAICGCSSRHQGSPGKGWKWGGCSEDIEFGGMVSREFADARENRPDARSAMNRHNNEAGRQAIASHMHLKCKCHGLSGSCEVKTCWWSQPDFRAIGDFLKDKYDSASEMVVEKHRESRGWVETLRPRYTYFKVPTERDLVYYEASPNFCEPNPETGSFGTRDRTCNVSSHGIDGCDLLCCGRGHNARAERRREKCRCVFHWCCYVSCQECTRVYDVHTCK		little effect	restored	restored; also recorded: enhanced
